Results on two molecules are retold here after publication doi:10.1101/2025.05.14.654016, “Phosphatase activity is dispensable for PRL-3-mediated oncogenesis and tumor progression” (bioRxiv, 2025).

Common to all, as to settings: both partners purified
Test [1] deals with T1, LSSmGFP-PRL-3.C104D (human, UniProt O75365 1-173, C104D).
T1 construct: full-length PRL-3 with C104D, joined to LSSmGFP at its N-terminus by a glycine/serine linker; also called FRET donor; source: E. coli BL21 Star DE3, purified (Ni-NTA, TEV cleavage, second Ni-NTA, Superdex 200); not shown: LSSmGFP, N-terminal, kept
T1 sequence (O75365 whole entry C104D): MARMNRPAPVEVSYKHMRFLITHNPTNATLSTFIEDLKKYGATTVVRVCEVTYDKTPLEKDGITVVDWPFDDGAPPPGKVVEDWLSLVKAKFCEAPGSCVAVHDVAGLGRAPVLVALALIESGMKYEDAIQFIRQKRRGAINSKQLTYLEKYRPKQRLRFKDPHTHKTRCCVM
Nature of the test: co-IP; in vitro, purified proteins: HA-CBS or HA-CBS-mScarlet3 (2.5 μM) on HA-Tag magnetic beads; equimolar PRL-3 or LSSmGFP-PRL3.C104D with 1 mM TCEP, pre-incubated with 50 μM test compounds or DMSO; 25 mM Tris-HCl pH 7.4, 150 mM NaCl, 1% NP-40, 5% glycerol; room temperature.

The target of test [2] is T2, recombinant full-length human PRL-3 (human, UniProt O75365 1-173).
T2 construct: full-length human PRL-3 cloned into pSKB3 (modified pET-28b with a TEV site); also called purified PRL-3; non-fluorescent PRL-3; source: E. coli BL21 Star DE3, purified (Ni-NTA, TEV cleavage, second Ni-NTA, Superdex 200)
T2 sequence (O75365 whole entry): as the sequence (O75365 whole entry C104D) above, with D104C counted along it
The test is described as above.

For test [3], the target named is T1, LSSmGFP-PRL-3.C104D. Nature of the test: FRET or BRET; in vitro FRET of purified proteins, LSSmGFP-PRL-3 C104D with increasing concentrations of HA-CBS-mScarlet3; excitation 400 nm, emission 600 nm. In general terms: In BRET a luciferase serves as donor, and the signal depends on an acceptor being close.

B1: HA-CBS (CBS domain of CNNM3, residues Y301-D451, with an N-terminal HA tag) (domain or fragment, UniProt Q8NE01-1 301-451, looked up)
chain: YSDLSKGVLRCRTVEDVLTPLEDCFMLDASTVLDFGVLASIMQSGHTRIPVYEEERSNIVDMLYLKDLAFVDPEDCTPLSTITRFYNHPLHFVFNDTKLDAVLEEFKRGKSHLAIVQKVNNEGEGDPFYEVLGLVTLEDVIEEIIRSEILD
notes: also called purified CBS domain; unlabelled HA-CBS; source: E. coli BL21 Star DE3, purified (Ni-NTA, TEV cleavage, second Ni-NTA, Superdex 200); not shown: HA, N-terminal, kept
In the case of B1, the binding result in test [1] and in test [2] was “binds” throughout.

B2: HA-CBS-mScarlet3 (domain or fragment, UniProt Q8NE01-1 301-451, looked up)
chain: YSDLSKGVLRCRTVEDVLTPLEDCFMLDASTVLDFGVLASIMQSGHTRIPVYEEERSNIVDMLYLKDLAFVDPEDCTPLSTITRFYNHPLHFVFNDTKLDAVLEEFKRGKSHLAIVQKVNNEGEGDPFYEVLGLVTLEDVIEEIIRSEILD
notes: CBS domain of CNNM3, residues Y301-D451, joined to mScarlet3 at its C-terminus by a glycine/serine linker; also called FRET acceptor; source: E. coli BL21 Star DE3, purified (Ni-NTA, TEV cleavage, second Ni-NTA, Superdex 200); not shown: HA, N-terminal, kept; mScarlet3, C-terminal, kept
As to B2, the binding result in test [2] and in test [3] was “binds” throughout.
